Test results taken from patent US20080274977A1.

T1: chemokine CXCR2 (IL-8Rb), P25025
T1 chain: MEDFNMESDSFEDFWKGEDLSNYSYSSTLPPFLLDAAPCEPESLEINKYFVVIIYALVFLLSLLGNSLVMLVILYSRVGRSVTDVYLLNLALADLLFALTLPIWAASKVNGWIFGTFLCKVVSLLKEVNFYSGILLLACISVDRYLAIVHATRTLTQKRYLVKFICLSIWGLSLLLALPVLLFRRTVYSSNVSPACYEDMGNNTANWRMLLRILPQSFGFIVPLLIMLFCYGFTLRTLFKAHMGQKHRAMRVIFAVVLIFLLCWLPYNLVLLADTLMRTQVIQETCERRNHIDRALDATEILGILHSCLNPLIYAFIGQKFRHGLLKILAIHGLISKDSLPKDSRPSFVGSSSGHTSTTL

B1: Tat-NR2B9c (peptide)
peptide: YGRKKRRQRRRKLSSIESDV
modifications: not checked

How the values were obtained:
[1] = biological target: N-type calcium channel (receptor binding screen of Example 1)
[2] = biological target: T1, chemokine CXCR2 (IL-8Rb), P25025

Molecule	% inhibition [1]	% inhibition [2]
Tat-NR2B9c (peptide)	100%	–
B1	–	80%
